Data: article PMC6131271

B1: Recombinant soluble protein comprising the entire DDR2 extracellular region, fused to the Fc-sequence of human IgG2 (Fc fusion)
chain: KAQVNPAICRYPLGMSGGQIPDEDITASSQWSESTAAKYGRLDSEEGDGAWCPEIPVEPDDLKEFLQIDLHTLHFITLVGTQGRHAGGHGIEFAPMYKINYSRDGTRWISWRNRHGKQVLDGNSNPYDIFLKDLEPPIVARFVRFIPVTDHSMNVCMRVELYGCVWLDGLVSYNAPAGQQFVLPGGSIIYLNDSVYDGAVGYSMTEGLGQLTDGVSGLDDFTQTHEYHVWPGYDYVGWRNESATNGYIEIMFEFDRIRNFTTMKVHCNNMFAKGVKIFKEVQCYFRSEASEWEPNAISFPLVLDDVNPSARFVTVPLHHRMASAIKCQYHFADTWMMFSEITFQSDAAMYNNSEALPTSPMAPTTYDPMLKVDDSNTR

How the values were obtained:
[1] = biological target: bovine Achilles tendon collagen type I film, 50% EDC/NHS crosslinked (bovine) (UniProt P02453); assay: ELISA; collagen films in 96-well plates, EDC/NHS crosslinked 0% to 100%, blocked with PBS 5% BSA; VWF A3-GST at 5 μg/ml in PBS 0.1% BSA, room temperature (2 h in the methods, 1 h in the legend); anti-GST HRP, TMB, A450
[2] = biological target: bovine Achilles tendon collagen type I, non-crosslinked film (bovine) (UniProt P02453); assay: as above
[3] = biological target: bovine Achilles tendon collagen type I film, 100% EDC/NHS crosslinked (bovine) (UniProt P02453); assay: as above
[4] = biological target: Diaz-ES-VWFIIINle (diazirine-bearing end-stapled triple-helical peptide of three VWFIIINle strands); assay: ELISA; 100% EDC/NHS crosslinked collagen films in 96-well plates, without peptide or incubated with peptide at 5 μg/ml for 30 min, then UV (365 nm) for 5 min, washed with citrate buffer pH 3 and PBS; VWF-A3-GST at 5 μg/ml in PBS 0.1% BSA, room temperature; anti-GST HRP, A450
[5] = biological target: bovine Achilles tendon collagen type I film, 100% EDC/NHS crosslinked (bovine) (UniProt P02453); assay: as above
[6] = biological target: Diaz-ES-VWFIIINle (diazirine-bearing end-stapled triple-helical peptide of three VWFIIINle strands)
[7] = biological target: bovine Achilles tendon collagen type I film, 100% EDC/NHS crosslinked (bovine) (UniProt P02453)
[8] = biological target: Diaz-ES-VWFIIINle (diazirine-bearing end-stapled triple-helical peptide of three VWFIIINle strands); assay: ELISA; 100% EDC/NHS crosslinked collagen films in 96-well plates, without peptide or incubated with peptide at 5 μg/ml, left in the dark (no UV), washed with citrate buffer pH 3 and PBS; VWF-A3-GST at 5 μg/ml in PBS 0.1% BSA, room temperature; anti-GST HRP, A450
[9] = biological target: bovine Achilles tendon collagen type I film, 100% EDC/NHS crosslinked (bovine) (UniProt P02453); assay: as above
[10] = biological target: III-23, GPC(GPP)5GPOGPSGPRGQOGVMGFOGPKGNDGAO(GPP)5GPC; assay: ELISA; control wells coated with III-23 or BSA; VWF-A3-GST at 5 μg/ml in PBS 0.1% BSA, room temperature; anti-GST HRP, A450
[11] = biological target: bovine Achilles tendon collagen type I film, 100% EDC/NHS crosslinked (bovine) (UniProt P02453); assay: ELISA; 100% EDC/NHS crosslinked collagen films in 96-well plates, without peptide or incubated with peptide at 5 μg/ml, left in the dark (no UV), washed with citrate buffer pH 3 and PBS; DDR2-Fc at 1 μg/ml in PBS 0.1% BSA and 0.05% Tween-20, 2 h, room temperature; anti-Fc HRP, A450
[12] = biological target: Diaz-ES-VWFIIINle (diazirine-bearing end-stapled triple-helical peptide of three VWFIIINle strands); assay: ELISA; 100% EDC/NHS crosslinked collagen films in 96-well plates, without peptide or incubated with peptide at 5 μg/ml for 30 min, then UV (365 nm) for 5 min, washed with citrate buffer pH 3 and PBS; DDR2-Fc at 1 μg/ml in PBS 0.1% BSA and 0.05% Tween-20, 2 h, room temperature; anti-Fc HRP, A450
[13] = biological target: bovine Achilles tendon collagen type I film, 100% EDC/NHS crosslinked (bovine) (UniProt P02453); assay: as above
[14] = biological target: All other peptide treatments; assay: ELISA; as a6 and a7, the three other peptide treatments taken together (VWFIIINle with UV, VWFIIINle without UV, Diaz-ES-VWFIIINle without UV) on 100% crosslinked films; DDR2-Fc at 1 μg/ml; A450
[15] = biological target: bovine Achilles tendon collagen type I, non-crosslinked film (bovine) (UniProt P02453); assay: ELISA; collagen films in 96-well plates, EDC/NHS crosslinked 0% to 100%, blocked with PBS 5% BSA; DDR2-Fc at 1 μg/ml in PBS 0.1% BSA with 0.05% Tween-20, 2 h, room temperature; anti-Fc HRP, TMB, A370 read before addition of sulfuric acid
[16] = biological target: bovine Achilles tendon collagen type I film, 100% EDC/NHS crosslinked (bovine) (UniProt P02453); assay: as above

| Molecule | A450 [1] | A450 [2] | A450 [3] | A450 [4] | A450 [5] | platelet surface coverage; human whole blood (full-length plasma VWF) perfused at 1000 s^-1 over 100% crosslinked films with Diaz-ES-VWFIIINle after UV [6] | platelet surface coverage; human whole blood (full-length plasma VWF) perfused at 1000 s^-1 over 100% crosslinked films without peptide [7] | A450 [8] | A450 [9] | A450 [10] | A450 [11] | A450 [12] | A450 [13] | A450 [14] | A370 [15] | A370 [16] |
| --- | --- | --- | --- | --- | --- | --- | --- | --- | --- | --- | --- | --- | --- | --- | --- | --- |
| recombinant GST-tagged human VWF-A3 domain (from UniProt P04275 23-2813) (domain or fragment) | 0.12 absorbance | 0.57 absorbance | 0.13 absorbance | 1.8 absorbance | 0.24 absorbance | 42.9% | 5.6% | 1.25 absorbance | 0.26 absorbance | 1.42 absorbance |  |  |  |  |  |  |
| B1 |  |  |  |  |  |  |  |  |  |  | 0.61 absorbance | 1.9 absorbance | 0.61 absorbance | 1.16 to 1.43 absorbance | 0.32 absorbance | 0.18 absorbance |
